Biological target: the molecule itself
Test: cryo-EM structure; purified AE2 in 50 μM GDN, 150 mM NaCl, 20 mM HEPES pH 7.4; Titan Krios 300 kV; homodimer

| Protein | stoichiometry N |
| --- | --- |
| Full-length canonical human AE2 (isoform 1), wild type (natural protein, UniProt P04920-1 1-1241, looked up, Anion exchanger 2 (AE2, SLC4A2), human, isoform a, UniProtKB P04920-1, full length; Full-length protein was purified, but only the TMDs are resolved in the map; the NTD, parts of EL3, EL4, EL6 and the C-terminus are not modelled; also called Anion exchanger 2; hAE2; source: HEK293F (FreeStyle 293 F) cells, BacMam system, purified (LMNG/CHS extraction, Ni-NTA, TEV, Superose 6 in GDN); not shown: …) MSSAPRRPAKGADSFCTPEPESLGPGTPGFPEQEEDELHRTLGVERFEEILQEAGSRGGEEPGRSYGEEDFEYHRQSSHHIHHPLSTHLPPDARRRKTPQGPGRKPRRRPGASPTGETPTIEEGEEDEDEASEAEGARALTQPSPVSTPSSVQFFLQEDDSADRKAERTSPSSPAPLPHQEATPRASKGAQAGTQVEEAEAEAVAVASGTAGGDDGGASGRPLPKAQPGHRSYNLQERRRIGSMTGAEQALLPRVPTDEIEAQTLATADLDLMKSHRFEDVPGVRRHLVRKNAKGSTQSGREGREPGPTPRARPRAPHKPHEVFVELNELLLDKNQEPQWRETARWIKFEEDVEEETERWGKPHVASLSFRSLLELRRTLAHGAVLLDLDQQTLPGVAHQVVEQMVISDQIKAEDRANVLRALLLKHSHPSDEKDFSFPRNISAGSLGSLLGHHHGQGAESDPHVTEPLMGGVPETRLEVERERELPPPAPPAGITRSKSKHELKLLEKIPENAEATVVLVGCVEFLSRPTMAFVRLREAVELDAVLEVPVPVRFLFLLLGPSSANMDYHEIGRSISTLMSDKQFHEAAYLADEREDLLTAINAFLDCSVVLPPSEVQGEELLRSVAHFQRQMLKKREEQGRLLPTGAGLEPKSAQDKALLQMVEAAGAAEDDPLRRTGRPFGGLIRDVRRRYPHYLSDFRDALDPQCLAAVIFIYFAALSPAITFGGLLGEKTQDLIGVSELIMSTALQGVVFCLLGAQPLLVIGFSGPLLVFEEAFFSFCSSNHLEYLVGRVWIGFWLVFLALLMVALEGSFLVRFVSRFTQEIFAFLISLIFIYETFYKLVKIFQEHPLHGCSASNSSEVDGGENMTWAGARPTLGPGNRSLAGQSGQGKPRGQPNTALLSLVLMAGTFFIAFFLRKFKNSRFFPGRIRRVIGDFGVPIAILIMVLVDYSIEDTYTQKLSVPSGFSVTAPEKRGWVINPLGEKSPFPVWMMVASLLPAILVFILIFMETQITTLIISKKERMLQKGSGFHLDLLLIVAMGGICALFGLPWLAAATVRSVTHANALTVMSKAVAPGDKPKIQEVKEQRVTGLLVALLVGLSIVIGDLLRQIPLAVLFGIFLYMGVTSLNGIQFYERLHLLLMPPKHHPDVTYVKKVRTLRMHLFTALQLLCLALLWAVMSTAASLAFPFILILTVPLRMVVLTRIFTDREMKCLDANEAEPVFDEREGVDEYNEMPMPV | 2 |
| Full-length human AE2 with R932A/K1147A/H1148A mutations (natural protein, UniProt P04920-1 1-1241, looked up, No PIP2 in the map; NTD resolved; also called AE2_(IF/REST); mutant AE2; not shown: GFP, C-terminal, cleaved; His tag, C-terminal, cleaved) MSSAPRRPAKGADSFCTPEPESLGPGTPGFPEQEEDELHRTLGVERFEEILQEAGSRGGEEPGRSYGEEDFEYHRQSSHHIHHPLSTHLPPDARRRKTPQGPGRKPRRRPGASPTGETPTIEEGEEDEDEASEAEGARALTQPSPVSTPSSVQFFLQEDDSADRKAERTSPSSPAPLPHQEATPRASKGAQAGTQVEEAEAEAVAVASGTAGGDDGGASGRPLPKAQPGHRSYNLQERRRIGSMTGAEQALLPRVPTDEIEAQTLATADLDLMKSHRFEDVPGVRRHLVRKNAKGSTQSGREGREPGPTPRARPRAPHKPHEVFVELNELLLDKNQEPQWRETARWIKFEEDVEEETERWGKPHVASLSFRSLLELRRTLAHGAVLLDLDQQTLPGVAHQVVEQMVISDQIKAEDRANVLRALLLKHSHPSDEKDFSFPRNISAGSLGSLLGHHHGQGAESDPHVTEPLMGGVPETRLEVERERELPPPAPPAGITRSKSKHELKLLEKIPENAEATVVLVGCVEFLSRPTMAFVRLREAVELDAVLEVPVPVRFLFLLLGPSSANMDYHEIGRSISTLMSDKQFHEAAYLADEREDLLTAINAFLDCSVVLPPSEVQGEELLRSVAHFQRQMLKKREEQGRLLPTGAGLEPKSAQDKALLQMVEAAGAAEDDPLRRTGRPFGGLIRDVRRRYPHYLSDFRDALDPQCLAAVIFIYFAALSPAITFGGLLGEKTQDLIGVSELIMSTALQGVVFCLLGAQPLLVIGFSGPLLVFEEAFFSFCSSNHLEYLVGRVWIGFWLVFLALLMVALEGSFLVRFVSRFTQEIFAFLISLIFIYETFYKLVKIFQEHPLHGCSASNSSEVDGGENMTWAGARPTLGPGNRSLAGQSGQGKPRGQPNTALLSLVLMAGTFFIAFFLRKFKNSRFFPGRIARVIGDFGVPIAILIMVLVDYSIEDTYTQKLSVPSGFSVTAPEKRGWVINPLGEKSPFPVWMMVASLLPAILVFILIFMETQITTLIISKKERMLQKGSGFHLDLLLIVAMGGICALFGLPWLAAATVRSVTHANALTVMSKAVAPGDKPKIQEVKEQRVTGLLVALLVGLSIVIGDLLRQIPLAVLFGIFLYMGVTSLNGIQFYERLHLLLMPPAAHPDVTYVKKVRTLRMHLFTALQLLCLALLWAVMSTAASLAFPFILILTVPLRMVVLTRIFTDREMKCLDANEAEPVFDEREGVDEYNEMPMPV | 2 |

Source: article PMC10810954, “Structural and functional insights into the lipid regulation of human anion exchanger 2” (Nature Communications, 2024)
